Data taken from patent publication US4388232A, “Method of producing plasma fractions free of side-effects using fast-reacting antithrombin” (Immuno Aktiengesellschaft fur Chemisch Medizinische Produkte, priority 1979, dated 1983).

System: NMRI mice
Assay: LD50 test (toxicity of a preparation)
Format: in vivo, mouse (NMRI)
Details: intravenous
Protocol: The LD50 -test serves for determining the toxicity of a preparation. LD50 is the dose at which 50% of the animals die under experimental conditions. The preparation is intravenously injected in at least three dosages into ten NMRI ([…]) mice each, having a minimum body weight of 20 g. After an observation time of 7 days the living animals per dosage group are counted. The LD50 is calculated in accordance with Wilson and Worcester, Proc. Nat. Acad. Sci. U.S.A. 29, 114 (1943).

## Example 11: C1-esterase inhibitor, prepared with antithrombin III and heparin
7 days observation
  tolerance in LD50 test: excellently tolerated
7 days observation, 5,300 = maximum injectable amount C1-esterase-inhibitor
  LD50: > 5,300 units per kg body weight
